In test [1] the target is T1, TssJ (enteroaggregative E. coli Sci1 T6SS), residues 2-155 of the processed lipoprotein, fusion and tag … (enteroaggregative Escherichia coli …).
T1 construct: TssJ outer membrane lipoprotein of the sci1 cluster, enteroaggregative Escherichia coli strain 17-2; residues 2-155 of the processed lipoprotein = residues 25-178 of the full-length protein; a Gly left at position 1 may stem from the TEV site (surmised); also called native TssJ; SciN; not shown: thioredoxin, N-terminal, cleaved; His6, N-terminal, cleaved
Put plainly: SPR; Biacore X100; Trx-TssM-ekto covalently coupled to a CM5 chip (3000 RU), TssJ injected (40-0.312 µM); 10 mM Tris pH 8, 150 mM NaCl, 0.005% Tween; Kd from equilibrium levels, 1:1 model. The note with it: both partners purified. On the technique in general: In SPR one partner is held on a chip, and binding of the other changes the refractive index at the surface.

Test [2] addresses T2, TssJ N-terminal thioredoxine fusion (enteroaggregative Escherichia coli …).
T2 construct: TssJ of enteroaggregative Escherichia coli strain 17-2; residues 2-155 of the processed lipoprotein = residues 25-178 of the full-length protein; pETG-20A construct: hexahistidine tagged thioredoxin, TEV site, TssJ; used uncleaved on the CM5 chip; also called Trx-TssJ; source: E. coli T7 Iq pLysS, purified; not shown: thioredoxin, N-terminal, kept; His6, N-terminal, kept
Put plainly: SPR; Biacore X100; Trx-TssJ covalently coupled to a CM5 chip (600 RU), TssM construct injected (Trx-TssM-ekto at 10-0.312 µM); 10 mM Tris pH 8, 150 mM NaCl, 0.005% Tween; Kd from equilibrium levels, 1:1 model. The note with it: both partners purified.

The record followed here is PMC3213119, “Towards a Structural Comprehension of Bacterial Type VI Secretion Systems: Characterization of the TssJ-TssM Complex of an Escherichia coli Pathovar” (PLoS Pathogens, 2011).

Usually Kd stands for the free concentration of one partner at which half of the binding sites on the other are occupied at equilibrium, for simple one-to-one binding.

B1: TssM-ekto N-terminal thioredoxine fusion (domain or fragment)
chain: DYGSLTAAGLGQEWYGFGQTVFVRPMEQAWQQVLTPAAESLNARWRTAVVDGWNNAFSGRYPFKNVSSDASLPLLAKYLNTDTGRIARFLQNNLSGVLHREGSRWVPDTINTRGLTFNPAFLKAINTLSEIADVAFTTGNAGLHFELRPGTAAGVMQTTLITDNQKLIYVNQMPVWKRFTWPADTEAPGASLSWVSTQAGTRQYADLPGSWGLIRLLEMARRKAAPGVASGWSLSWQAQDGRMLNYTLRTEAGEGPLVLLKLRNFVLPETVFELSGTSAFTGNDEDAGDTVEETD
Take B1: the figures for the Kd in test [1] and in test [2] were 4 ± 0.5 µM and 2.1 µM, respectively.
